Data on one molecule can be found in PMC5920536.

In experiment [1] the target is T1, full-length human TRPML1 (transient receptor potential mucolipin 1) (human), Q9GZU1.
T1 chain: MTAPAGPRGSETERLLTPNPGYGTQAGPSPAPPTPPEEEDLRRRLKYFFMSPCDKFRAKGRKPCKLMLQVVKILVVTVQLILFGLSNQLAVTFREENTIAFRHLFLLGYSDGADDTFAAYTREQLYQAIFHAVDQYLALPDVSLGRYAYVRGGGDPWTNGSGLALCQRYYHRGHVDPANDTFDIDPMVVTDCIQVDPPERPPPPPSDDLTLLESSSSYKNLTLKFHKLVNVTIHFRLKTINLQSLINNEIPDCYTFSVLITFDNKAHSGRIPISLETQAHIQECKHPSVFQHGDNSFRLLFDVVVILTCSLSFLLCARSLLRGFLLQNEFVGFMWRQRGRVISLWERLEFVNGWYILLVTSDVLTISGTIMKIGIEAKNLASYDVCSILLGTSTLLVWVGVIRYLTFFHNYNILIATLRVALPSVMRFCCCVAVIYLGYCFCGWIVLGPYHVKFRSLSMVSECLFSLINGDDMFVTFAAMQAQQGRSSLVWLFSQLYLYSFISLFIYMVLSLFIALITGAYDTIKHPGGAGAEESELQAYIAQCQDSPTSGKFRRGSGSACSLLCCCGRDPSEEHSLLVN
Put plainly: cryo-EM structure. As to conditions: remark: other sources report otherwise.

Experiment [2] addresses T1, full-length human TRPML1 (transient …). In words: cryo-EM structure. As to conditions: remark: other sources report otherwise.

B1: full-length human TRPML1 (transient receptor potential mucolipin 1), Q9GZU1 1-580 (natural protein)
chain: MTAPAGPRGSETERLLTPNPGYGTQAGPSPAPPTPPEEEDLRRRLKYFFMSPCDKFRAKGRKPCKLMLQVVKILVVTVQLILFGLSNQLAVTFREENTIAFRHLFLLGYSDGADDTFAAYTREQLYQAIFHAVDQYLALPDVSLGRYAYVRGGGDPWTNGSGLALCQRYYHRGHVDPANDTFDIDPMVVTDCIQVDPPERPPPPPSDDLTLLESSSSYKNLTLKFHKLVNVTIHFRLKTINLQSLINNEIPDCYTFSVLITFDNKAHSGRIPISLETQAHIQECKHPSVFQHGDNSFRLLFDVVVILTCSLSFLLCARSLLRGFLLQNEFVGFMWRQRGRVISLWERLEFVNGWYILLVTSDVLTISGTIMKIGIEAKNLASYDVCSILLGTSTLLVWVGVIRYLTFFHNYNILIATLRVALPSVMRFCCCVAVIYLGYCFCGWIVLGPYHVKFRSLSMVSECLFSLINGDDMFVTFAAMQAQQGRSSLVWLFSQLYLYSFISLFIYMVLSLFIALITGAYDTIKHPGGAGAEESELQAYIAQCQDSPTSGKFRRGSGSACSLLCCCGRDPSEEHSLLVN
Take B1: the stoichiometry N in experiment [1] and in experiment [2] was 4 each time.
